These results are taken from patent US20240425590A1 (VIBRANT PHARMA, published 2024).

Numbering of substitutions follows the chain as printed.

Sequences and labels used below:
T1: human carcinoembryonic antigen-related cell adhesion molecule 5 (human, UniProt P06731 35-702)
T1 sequence (looked up): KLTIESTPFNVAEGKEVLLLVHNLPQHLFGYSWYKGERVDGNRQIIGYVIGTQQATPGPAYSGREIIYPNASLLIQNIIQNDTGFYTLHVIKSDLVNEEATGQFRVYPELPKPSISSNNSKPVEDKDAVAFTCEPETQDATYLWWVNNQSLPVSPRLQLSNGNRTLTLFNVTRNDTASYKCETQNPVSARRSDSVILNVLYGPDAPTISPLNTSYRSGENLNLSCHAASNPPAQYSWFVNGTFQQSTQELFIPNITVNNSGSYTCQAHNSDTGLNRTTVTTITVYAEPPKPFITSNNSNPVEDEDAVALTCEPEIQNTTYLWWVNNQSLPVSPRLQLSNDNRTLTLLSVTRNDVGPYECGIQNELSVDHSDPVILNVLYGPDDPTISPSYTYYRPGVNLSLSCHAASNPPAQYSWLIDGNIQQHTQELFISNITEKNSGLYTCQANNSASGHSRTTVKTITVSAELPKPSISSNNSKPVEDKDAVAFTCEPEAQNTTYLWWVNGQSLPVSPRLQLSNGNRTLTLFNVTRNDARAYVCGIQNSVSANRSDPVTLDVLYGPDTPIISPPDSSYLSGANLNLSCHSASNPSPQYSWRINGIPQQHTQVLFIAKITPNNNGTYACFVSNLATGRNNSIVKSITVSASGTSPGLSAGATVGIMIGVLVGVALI

B1: TA1-4N1+CEA-4O1 (bispecific antibody, human IgG4 S228P, F234A L235A)
chain 1: EVKLLESGGGLVQPKGSLKLSCAASGFTFNTYAMNWVRQAPGKGLEWVARIRSKYNNYATYYADSVKDRFTISRDDSQSILYLQMNNLKTEDTAMYYCVRHGNFGNSYVSWFAYWGQGTLVTVSSGGGGSGGGGSGGGGSQAVVTQESALTTSPGETVTLTCRSSTGAVTTSNYANWVQEKPDHLFTGLIGGTNKRAPGVPARFSGSLIGDKAALTITGAQTEDEAIYFCALWYSNLWVFGGGTKVEIKRTESKYGPPCPPCPAPEAAGGPSVFLFPPKPKDTLMISRTPEVTCVVVDVSQEDPEVQFNWYVDGVEVHNAKTKPREEQFNSTYRVVSVLTVLHQDWLNGKEYKCKVSNKGLPSSIEKTISKAKGQPREPQVYTLPPCQEEMTKNQVSLWCLVKGFYPSDIAVEWESNGQPENNYKTTPPVLDSDGSFFLYSRLTVDKSRWQEGNVFSCSVMHEALHNHYTQKSLSLSL
chain 2: EVQLVESGGGFVQAGESLTLSCTSSTLTFTPYRMAWYRQAPGKQRDLVADISSGDGRTTNYADFAKGRFTISRDNIKNTVFLRMTNLKPEDTAVYYCNTFVSFVGIARSWGQGTQVTVSSESKYGPPCPPCPAPEAAGGPSVFLFPPKPKDTLMISRTPEVTCVVVDVSQEDPEVQFNWYVDGVEVHNAKTKPREEQFNSTYRVVSVLTVLHQDWLNGKEYKCKVSNKGLPSSIEKTISKAKGQPREPQVCTLPPSQEEMTKNQVSLSCAVKGFYPSDIAVEWESNGQPENNYKTTPPVLDSDGSFFLVSRLTVDKSRWQEGNVFSCSVMHEALHNRFTQKSLSLSL
B2: CEA-4N1+4O1-TA1 (bispecific antibody, human IgG4 S228P, F234A L235A)
chain 1: B1 chain 2 with C251Y, S256C, S268W, A270L, V309Y, R337H, F338Y
chain 2: ESKYGPPCPPCPAPEAAGGPSVFLFPPKPKDTLMISRTPEVTCVVVDVSQEDPEVQFNWYVDGVEVHNAKTKPREEQFNSTYRVVSVLTVLHQDWLNGKEYKCKVSNKGLPSSIEKTISKAKGQPREPQVCTLPPSQEEMTKNQVSLSCAVKGFYPSDIAVEWESNGQPENNYKTTPPVLDSDGSFFLVSRLTVDKSRWQEGNVFSCSVMHEALHNRFTQKSLSLSLGGGGSGGGGSEVKLLESGGGLVQPKGSLKLSCAASGFTFNTYAMNWVRQAPGKGLEWVARIRSKYNNYATYYADSVKDRFTISRDDSQSILYLQMNNLKTEDTAMYYCVRHGNFGNSYVSWFAYWGQGTLVTVSSGGGGSGGGGSGGGGSQAVVTQESALTTSPGETVTLTCRSSTGAVTTSNYANWVQEKPDHLFTGLIGGTNKRAPGVPARFSGSLIGDKAALTITGAQTEDEAIYFCALWYSNLWVFGGGTKVEIKRT
B3: CEA-4N1+TA1-4O1 (bispecific antibody, human IgG4 S228P, F234A L235A)
chain 1: B1 chain 2 with C251Y, S256C, S268W, A270L, V309Y, R337H, F338Y
chain 2: B1 chain 1 with Y382C, C387S, W399S, L401A, Y440V, H468R, Y469F
B4: 4N1-TA1+CEA-4O1 (bispecific antibody, human IgG4 S228P, F234A L235A)
chain 1: B2 chain 2 with C131Y, S136C, S148W, A150L, V189Y, R217H, F218Y
chain 2: B1 chain 2
B5: 4N1-TA1+4O1-CEA (bispecific antibody, human IgG4 S228P, F234A L235A)
chain 1: B2 chain 2 with C131Y, S136C, S148W, A150L, V189Y, R217H, F218Y
chain 2: ESKYGPPCPPCPAPEAAGGPSVFLFPPKPKDTLMISRTPEVTCVVVDVSQEDPEVQFNWYVDGVEVHNAKTKPREEQFNSTYRVVSVLTVLHQDWLNGKEYKCKVSNKGLPSSIEKTISKAKGQPREPQVCTLPPSQEEMTKNQVSLSCAVKGFYPSDIAVEWESNGQPENNYKTTPPVLDSDGSFFLVSRLTVDKSRWQEGNVFSCSVMHEALHNRFTQKSLSLSLGGGGSGGGGSEVQLVESGGGFVQAGESLTLSCTSSTLTFTPYRMAWYRQAPGKQRDLVADISSGDGRTTNYADFAKGRFTISRDNIKNTVFLRMTNLKPEDTAVYYCNTFVSFVGIARSWGQGTQVTVSS
B6: CEA-4N1-TA1+4O1 (bispecific antibody, human IgG4 S228P, F234A L235A)
chain 1: EVQLVESGGGFVQAGESLTLSCTSSTLTFTPYRMAWYRQAPGKQRDLVADISSGDGRTTNYADFAKGRFTISRDNIKNTVFLRMTNLKPEDTAVYYCNTFVSFVGIARSWGQGTQVTVSSESKYGPPCPPCPAPEAAGGPSVFLFPPKPKDTLMISRTPEVTCVVVDVSQEDPEVQFNWYVDGVEVHNAKTKPREEQFNSTYRVVSVLTVLHQDWLNGKEYKCKVSNKGLPSSIEKTISKAKGQPREPQVYTLPPCQEEMTKNQVSLWCLVKGFYPSDIAVEWESNGQPENNYKTTPPVLDSDGSFFLYSRLTVDKSRWQEGNVFSCSVMHEALHNHYTQKSLSLSLGGGGSGGGGSEVKLLESGGGLVQPKGSLKLSCAASGFTFNTYAMNWVRQAPGKGLEWVARIRSKYNNYATYYADSVKDRFTISRDDSQSILYLQMNNLKTEDTAMYYCVRHGNFGNSYVSWFAYWGQGTLVTVSSGGGGSGGGGSGGGGSQAVVTQESALTTSPGETVTLTCRSSTGAVTTSNYANWVQEKPDHLFTGLIGGTNKRAPGVPARFSGSLIGDKAALTITGAQTEDEAIYFCALWYSNLWVFGGGTKVEIKRT
chain 2: ESKYGPPCPPCPAPEAAGGPSVFLFPPKPKDTLMISRTPEVTCVVVDVSQEDPEVQFNWYVDGVEVHNAKTKPREEQFNSTYRVVSVLTVLHQDWLNGKEYKCKVSNKGLPSSIEKTISKAKGQPREPQVCTLPPSQEEMTKNQVSLSCAVKGFYPSDIAVEWESNGQPENNYKTTPPVLDSDGSFFLVSRLTVDKSRWQEGNVFSCSVMHEALHNRFTQKSLSLSL

This assay concerns the target T1, human carcinoembryonic antigen-related …. Description: cell-based or functional assay.
For B1, the “EC50 (pM) of TCB-mediated killing of LS-174T target cells co-cultured with human PBMCs (viability read-out)” value turned out to be 3.1 pM.
For B2 the value was 9 pM.
Next, B3: 0.005 pM; B4: 6 pM; B5: 6.7 pM.
For B6 the value was 0.4 pM.
